Data reported in paper PMC7793260.

Tests used:
[1] = target: mKO-^MalFNTPBP2 (E. coli); assay: FRET or BRET; three-plasmid FRET in LMC500 cells; third plasmid: empty pSG4K5 vector
[2] = target: mKO-^MalFNTPBP2 (E. coli); assay: FRET or BRET; three-plasmid FRET in LMC500 cells; third plasmid expresses non-fused MreC
[3] = target: mKO-^MalFNTPBP2 (E. coli); assay: FRET or BRET; three-plasmid FRET in LMC500 cells; third plasmid expresses non-fused MreCD
[4] = target: mKO-^MalFNTPBP2 (E. coli); assay: FRET or BRET; two-plasmid spectral FRET in E. coli LMC500 cells; mCherry fusion as acceptor, mKO fusion as donor; Gb4 medium, steady state at 28 C, 15 uM IPTG for two mass doublings, FAGA-fixed; acceptor FRET efficiency (EfA) by spectral unmixing
[5] = target: mKO-^MalFNTPBP2 (E. coli); assay: FRET or BRET; as the two-plasmid FRET, cells treated with mecillinam (2 mg/L) for two mass doublings
[6] = target: mKO-^MalFNTPBP2 (E. coli); assay: FRET or BRET; two-plasmid FRET in LMC500 cells; mCherry-MreC and non-fused MreD co-expressed from one plasmid (mCh-MreCD), mKO fusion as donor

EfA (acceptor FRET efficiency) [1] [%]	EfA (acceptor FRET efficiency) [2] [%]	EfA (acceptor FRET efficiency) [3] [%]	EfA (acceptor FRET efficiency) [4] [%]	EfA (acceptor FRET efficiency) [5] [%]	EfA (acceptor FRET efficiency) [6] [%]	Substance
9.4	9.8	8.7	10.5			PBP2 (wild type), fused to mKO or to mCherry (from UniProt P0AD65 1-633) (enzyme)
7.6	4.2	5.5	11.8	6.2		RodA (wild type), fused to mCherry or to mKO (from UniProt P0ABG7 1-370) (enzyme)
			5.4		5.4	mCh-MreC (from UniProt P16926 1-367) (natural protein)
